These results are taken from US20030224992A1, “Transcription factor modulators and uses thereof” (Praecis Pharmaceuticals Inc., priority 2002, published 2003).

Read-outs that look alike come from different tables or passages of the source.

Series [1] concerns the target T1, Androgen receptor DNA binding domain (GST-ARDBD) (UniProt P10275 P10275:560-632). The series is described as follows: FP; labelled probe, 1 nM with 50 nM GST-ARDBD. To be noted: tags: GST fusion; chain copies: 2; label: 5'-FAM on top strand.
Series [2] has as its target T1, Androgen receptor DNA binding domain …. In words: FP; scrambled MPS control, competition with FAM-ARE. To be noted: tags: GST fusion; chain copies: 2.
Series [3] has the same target. In words: FP; competition with 1 nM FAM-ARE, 50 nM GST-ARDBD; room temperature. To be noted: tags: GST fusion; chain copies: 2.
For series [4] the target is unchanged. To be noted: tags: GST fusion; chain copies: 2.
Series [5] has the same target. The series is described as follows: FP; scrambled control, competition with FAM-ARE. To be noted: tags: GST fusion; chain copies: 2.

T1 sequence (P10275 560-632, one chain of several): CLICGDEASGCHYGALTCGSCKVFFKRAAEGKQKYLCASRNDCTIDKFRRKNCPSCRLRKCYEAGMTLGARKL

B1: FAM-ARE duplex (dsDNA)
DNA 1: AGTCTGGTACAGGGTGTTCTTTTTA
DNA 2: TAAAAAGAACACCCTGTACCAGACT
B1: the binding result in series [1] was “binds”.

B2: AREsc-MPS scrambled (dsDNA)
DNA 1: AGTCTACGAGTGGGGTTCTTTTTTA
DNA 2: TAAAAAAGAACCCCACTCGTAGACT
modifications: membrane permeable peptide Ac-…-NH2 conjugate
B2: in series [2], the binding result is “no binding”.

B3: ARE-MPS duplex (dsDNA)
DNA 1: AGTCTGGTACAGGGTGTTCTTTTTA
DNA 2: TAAAAAGAACACCCTGTACCAGACT
modifications: membrane permeable peptide Ac-…-NH2 conjugated at 5' of top strand
For the molecule B3, the binding result in series [3] is on record as “binds”.

B4: ARE duplex (dsDNA)
DNA 1: AGTCTGGTACAGGGTGTTCTTTTTA
DNA 2: TAAAAAGAACACCCTGTACCAGACT
For the molecule B4, the binding result in series [4] is given as “binds”.

B5: AREsc scrambled (dsDNA)
DNA 1: AGTCTACGAGTGGGGTTCTTTTTTA
DNA 2: TAAAAAAGAACCCCACTCGTAGACT
With B5, the binding result in series [5] is “no binding”.
